Results published in the supplement of paper PMC5998384.

Experiments:
[1] = tested on: HeLa Kyoto; test: solubility in G1/S (NP-40 vs SDS abundance) (log2 ratio); higher = more soluble; details: cell cycle stage: G1/S
[2] = tested on: HeLa Kyoto; test: solubility change mitosis vs G1/S (difference of NP-40 vs SDS log2 ratios) (log2 ratio difference); higher = more soluble in mitosis
[3] = tested on: HeLa Kyoto; test: thermal stability score vs G1/S (z-score of summed log2 fold changes over temperatures); higher = more thermally stable than in G1/S
[4] = tested on: HeLa Kyoto; test: melting temperature (median over replicates), in situ; higher = more thermally stable
[5] = cell cycle stage: early G1 (4.5 h after nocodazole release)
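Wherever melting temperature (median over replicates), in situ is given: HeLa Kyoto cells synchronized by double thymidine or nocodazole block, proteins quantified by TMT10plex mass spectrometry, three independent biological replicates.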
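Wherever solubility change mitosis vs G1/S (difference of NP-40 vs SDS log2 ratios) is given: synchronized HeLa Kyoto cells (double thymidine block for G1/S, nocodazole release for mitosis), protein amounts in NP-40 versus SDS lysates quantified by mass spectrometry, three biological replicates.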
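Wherever solubility in G1/S (NP-40 vs SDS abundance) is given: HeLa Kyoto cells arrested at G1/S by double thymidine block, proteins quantified by TMT10plex mass spectrometry in mild NP-40 versus SDS extracts, three biological replicates.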
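Wherever thermal stability score vs G1/S (z-score of summed log2 fold changes over temperatures) is given: synchronized HeLa Kyoto cells, proteins quantified by TMT10plex mass spectrometry, three biological replicates, mitosis taken 0.5 h after nocodazole release, G1/S directly after double thymidine block.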

Sequence	solubility in G1/S (log2) [1]	solubility change mitosis (log2) [2]	thermal stability score [3, 5]	thermal stability score ([3]; cell cycle stage: mitosis)	melting temperature ([4]; cell cycle stage: G1/S) [°C]	melting temperature ([4]; cell cycle stage: mitosis) [°C]
MLPGLAAAAAHRCSWSSLCRLRLRCRAAACNPSDRQEWQNLVTFGSFSNMVPCSHPYIGTLSQVKLYSTNVQKEGQGSQTLRVEKVPSFETAEGIGTELKAPLKQEPLQVRVKAVLKKREYGSKYTQNNFITGVRAINEFCLKSSDLEQLRKIRRRSPHEDTESFTVYLRSDVEAKSLEVWGSPEALAREKKLRKEAEIEYRERLFRNQKILREYRDFLGNTKPRSRTASVFFKGPGKVVMVAICINGLNCFFKFLAWIYTGSASMFSEAIHSLSDTCNQGLLALGISKSVQTPDPSHPYGFSNMRYISSLISGVGIFMMGAGLSWYHGVMGLLHPQPIESLLWAYCILAGSLVSEGATLLVAVNELRRNARAKGMSFYKYVMESRDPSTNVILLEDTAAVLGVIIAATCMGLTSITGNPLYDSLGSLGVGTLLGMVSAFLIYTNTEALLGRSIQPEQVQRLTELLENDPSVRAIHDVKATDLGLGKVRFKAEVDFDGRVVTRSYLEKQDFDQMLQEIQEVKTPEELETFMLKHGENIIDTLGAEVDRLEKELKKRNPEVRHVDLEIL [SLC30A9]	-0.0134	-0.0502	-0.0363	-0.00857	51.1	51.9
MLPHVVLTFRRLGCALASCRLAPARHRGSGLLHTAPVARSDRSAPVFTRALAFGDRIALVDQHGRHTYRELYSRSLRLSQEICRLCGCVGGDLREERVSFLCANDASYVVAQWASWMSGGVAVPLYRKHPAAQLEYVICDSQSSVVLASQEYLELLSPVVRKLGVPLLPLTPAIYTGAVEEPAEVPVPEQGWRNKGAMIIYTSGTTGRPKGVLSTHQNIRAVVTGLVHKWAWTKDDVILHVLPLHHVHGVVNALLCPLWVGATCVMMPEFSPQQVWEKFLSSETPRINVFMAVPTIYTKLMEYYDRHFTQPHAQDFLRAVCEEKIRLMVSGSAALPLPVLEKWKNITGHTLLERYGMTEIGMALSGPLTTAVRLPGSVGTPLPGVQVRIVSENPQREACSYTIHAEGDERGTKVTPGFEEKEGELLVRGPSVFREYWNKPEETKSAFTLDGWFKTGDTVVFKDGQYWIRGRTSVDIIKTGGYKVSALEVEWHLLAHPSITDVAVIGVPDMTWGQRVTAVVTLREGHSLSHRELKEWARNVLAPYAVPSELVLVEEIPRNQMGKIDKKALIRHFHPS [ACSF3]	-0.107	-0.0957	-0.21	1.59	49.3	49.7
MLPVYQEVKPNPLQDANLCSRVFFWWLNPLFKIGHKRRLEEDDMYSVLPEDRSQHLGEELQGFWDKEVLRAENDAQKPSLTRAIIKCYWKSYLVLGIFTLIEESAKVIQPIFLGKIINYFENYDPMDSVALNTAYAYATVLTFCTLILAILHHLYFYHVQCAGMRLRVAMCHMIYRKALRLSNMAMGKTTTGQIVNLLSNDVNKFDQVTVFLHFLWAGPLQAIAVTALLWMEIGISCLAGMAVLIILLPLQSCFGKLFSSLRSKTATFTDARIRTMNEVITGIRIIKMYAWEKSFSNLITNLRKKEISKILRSSCLRGMNLASFFSASKIIVFVTFTTYVLLGSVITASRVFVAVTLYGAVRLTVTLFFPSAIERVSEAIVSIRRIQTFLLLDEISQRNRQLPSDGKKMVHVQDFTAFWDKASETPTLQGLSFTVRPGELLAVVGPVGAGKSSLLSAVLGELAPSHGLVSVHGRIAYVSQQPWVFSGTLRSNILFGKKYEKERYEKVIKACALKKDLQLLEDGDLTVIGDRGTTLSGGQKARVNLARAVYQDADIYLLDDPLSAVDAEVSRHLFELCICQILHEKITILVTHQLQYLKAASQILILKDGKMVQKGTYTEFLKSGIDFGSLLKKDNEESEQPPVPGTPTLRNRTFSESSVWSQQSSRPSLKDGALESQDTENVPVTLSEENRSEGKVGFQAYKNYFRAGAHWIVFIFLILLNTAAQVAYVLQDWWLSYWANKQSMLNVTVNGGGNVTEKLDLNWYLGIYSGLTVATVLFGIARSLLVFYVLVNSSQTLHNKMFESILKAPVLFFDRNPIGRILNRFSKDIGHLDDLLPLTFLDFIQTLLQVVGVVSVAVAVIPWIAIPLVPLGIIFIFLRRYFLETSRDVKRLESTTRSPVFSHLSSSLQGLWTIRAYKAEERCQELFDAHQDLHSEAWFLFLTTSRWFAVRLDAICAMFVIIVAFGSLILAKTLDAGQVGLALSYALTLMGMFQWCVRQSAEVENMMISVERVIEYTDLEKEAPWEYQKRPPPAWPHEGVIIFDNVNFMYSPGGPLVLKHLTALIKSQEKVGIVGRTGAGKSSLISALFRLSEPEGKIWIDKILTTEIGLHDLRKKMSIIPQEPVLFTGTMRKNLDPFNEHTDEELWNALQEVQLKETIEDLPGKMDTELAESGSNFSVGQRQLVCLARAILRKNQILIIDEATANVDPRTDELIQKKIREKFAHCTVLTIAHRLNTIIDSDKIMVLDSGRLKEYDEPYVLLQNKESLFYKMVQQLGKAEAAALTETAKQVYFKRNYPHIGHTDHMVTNTSNGQPSTLTIFETAL [ABCC4]	-0.0872	-0.177	-1.17	-1.43	57.5	55.8
MLQQVPENINFPAEEEKILEFWTEFNCFQECLKQSKHKPKFTFYDGPPFATGLPHYGHILAGTIKDIVTRYAHQSGFHVDRRFGWDCHGLPVEYEIDKTLGIRGPEDVAKMGITEYNNQCRAIVMRYSAEWKSTVSRLGRWIDFDNDYKTLYPQFMESVWWVFKQLYDKGLVYRGVKVMPFSTACNTPLSNFESHQNYKDVQDPSVFVTFPLEEDETVSLVAWTTTPWTLPSNLAVCVNPEMQYVKIKDVARGRLLILMEARLSALYKLESDYEILERFPGAYLKGKKYRPLFDYFLKCKENGAFTVLVDNYVKEEEGTGVVHQAPYFGAEDYRVCMDFNIIRKDSLPVCPVDASGCFTTEVTDFAGQYVKDADKSIIRTLKEQGRLLVATTFTHSYPFCWRSDTPLIYKAVPSWFVRVENMVDQLLRNNDLCYWVPELVREKRFGNWLKDARDWTISRNRYWGTPIPLWVSDDFEEVVCIGSVAELEELSGAKISDLHRESVDHLTIPSRCGKGSLHRISEVFDCWFESGSMPYAQVHYPFENKREFEDAFPADFIAEGIDQTRGWFYTLLVLATALFGQPPFKNVIVNGLVLASDGQKMSKRKKNYPDPVSIIQKYGADALRLYLINSPVVRAENLRFKEEGVRDVLKDVLLPWYNAYRFLIQNVLRLQKEEEIEFLYNENTVRESPNITDRWILSFMQSLIGFFETEMAAYRLYTVVPRLVKFVDILTNWYVRMNRRRLKGENGMEDCVMALETLFSVLLSLCRLMAPYTPFLTELMYQNLKVLIDPVSVQDKDTLSIHYLMLPRVREELIDKKTESAVSQMQSVIELGRVIRDRKTIPIKYPLKEIVVIHQDPEALKDIKSLEKYIIEELNVRKVTLSTDKNKYGIRLRAEPDHMVLGKRLKGAFKAVMTSIKQLSSEELEQFQKTGTIVVEGHELHDEDIRLMYTFDQATGGTAQFEAHSDAQALVLLDVTPDQSMVDEGMAREVINRIQKLRKKCNLVPTDEITVYYKAKSEGTYLNSVIESHTEFIFTTIKAPLKPYPVSPSDKVLIQEKTQLKGSELEITLTRGSSLPGPACAYVNLNICANGSEQGGVLLLENPKGDNRLDLLKLKSVVTSIFGVKNTELAVFHDETEIQNQTDLLSLSGKTLCVTAGSAPSLINSSSTLLCQYINLQLLNAKPQECLMGTVGTLLLENPLGQNGLTHQGLLYEAAKVFGLRSRKLKLFLNETQTQEITEDIPVKTLNMKTVYVSVLPTTADF [IARS]	-0.225	-0.178	0.0148	2.81	48.8	49.2
MLRACQLSGVTAAAQSCLCGKFVLRPLRPCRRYSTSGSSGLTTGKIAGAGLLFVGGGIGGTILYAKWDSHFRESVEKTIPYSDKLFEMVLGPAAYNVPLPKKSIQSGPLKISSVSEVMKESKQPASQLQKQKGDTPASATAPTEAAQIISAAGDTLSVPAPAVQPEESLKTDHPEIGEGKPTPALSEEASSSSIRERPPEEVAARLAQQEKQEQVKIESLAKSLEDALRQTASVTLQAIAAQNAAVQAVNAHSNILKAAMDNSEIAGEKKSAQWRTVEGALKERRKAVDEAADALLKAKEELEKMKSVIENAKKKEVAGAKPHITAAEGKLHNMIVDLDNVVKKVQAAQSEAKVVSQYHELVVQARDDFKRELDSITPEVLPGWKGMSVSDLADKLSTDDLNSLIAHAHRRIDQLNRELAEQKATEKQHITLALEKQKLEEKRAFDSAVAKALEHHRSEIQAEQDRKIEEVRDAMENEMRTQLRRQAAAHTDHLRDVLRVQEQELKSEFEQNLSEKLSEQELQFRRLSQEQVDNFTLDINTAYARLRGIEQAVQSHAVAEEEARKAHQLWLSVEALKYSMKTSSAETPTIPLGSAVEAIKANCSDNEFTQALTAAIPPESLTRGVYSEETLRARFYAVQKLARRVAMIDETRNSLYQYFLSYLQSLLLFPPQQLKPPPELCPEDINTFKLLSYASYCIEHGDLELAAKFVNQLKGESRRVAQDWLKEARMTLETKQIVEILTAYASAVGIGTTQVQPE [IMMT]	0.38	0.0268	0.171	-1.21	53.2	52
MLRAKNQLFLLSPHYLRQVKESSGSRLIQQRLLHQQQPLHPEWAALAKKQLKGKNPEDLIWHTPEGISIKPLYSKRDTMDLPEELPGVKPFTRGPYPTMYTFRPWTIRQYAGFSTVEESNKFYKDNIKAGQQGLSVAFDLATHRGYDSDNPRVRGDVGMAGVAIDTVEDTKILFDGIPLEKMSVSMTMNGAVIPVLANFIVTGEEQGVPKEKLTGTIQNDILKEFMVRNTYIFPPEPSMKIIADIFEYTAKHMPKFNSISISGYHMQEAGADAILELAYTLADGLEYSRTGLQAGLTIDEFAPRLSFFWGIGMNFYMEIAKMRAGRRLWAHLIEKMFQPKNSKSLLLRAHCQTSGWSLTEQDPYNNIVRTAIEAMAAVFGGTQSLHTNSFDEALGLPTVKSARIARNTQIIIQEESGIPKVADPWGGSYMMECLTNDVYDAALKLINEIEEMGGMAKAVAEGIPKLRIEECAARRQARIDSGSEVIVGVNKYQLEKEDAVEVLAIDNTSVRNRQIEKLKKIKSSRDQALAERCLAALTECAASGDGNILALAVDASRARCTVGEITDALKKVFGEHKANDRMVSGAYRQEFGESKEITSAIKRVHKFMEREGRRPRLLVAKMGQDGHDRGAKVIATGFADLGFDVDIGPLFQTPREVAQQAVDADVHAVGISTLAAGHKTLVPELIKELNSLGRPDILVMCGGVIPPQDYEFLFEVGVSNVFGPGTRIPKAAVQVLDDIEKCLEKKQQSV [MUT]	0.0667	-0.0993	-0.0875	0.531	50.6	50.3
MLRCLYHWHRPVLNRRWSRLCLPKQYLFTMKLQSPEFQSLFTEGLKSLTELFVKENHELRIAGGAVRDLLNGVKPQDIDFATTATPTQMKEMFQSAGIRMINNRGEKHGTITARLHEENFEITTLRIDVTTDGRHAEVEFTTDWQKDAERRDLTINSMFLGFDGTLFDYFNGYEDLKNKKVRFVGHAKQRIQEDYLRILRYFRFYGRIVDKPGDHDPETLEAIAENAKGLAGISGERIWVELKKILVGNHVNHLIHLIYDLDVAPYIGLPANASLEEFDKVSKNVDGFSPKPVTLLASLFKVQDDVTKLDLRLKIAKEEKNLGLFIVKNRKDLIKATDSSDPLKPYQDFIIDSREPDATTRVCELLKYQGEHCLLKEMQQWSIPPFPVSGHDIRKVGISSGKEIGALLQQLREQWKKSGYQMEKDELLSYIKKT [TRNT1]	0.146	-0.109	1.75	1.59	50.9	50.2
